The results in this text go back to US20240002501A1.

The target in one test is L1-CAM-His. Put plainly: SPR (Biacore T100), L1-CAM-His immobilised on CM5 chip. A general note: In SPR one partner is held on a chip, and binding of the other changes the refractive index at the surface.
Test [1] has as its target L1-CAM-Fc (UniProt P32004). Put plainly: SPR (Biacore T100), L1-CAM-Fc immobilised on CM5 chip.
In test [2] the target is L1-CAM-Fc (UniProt P32004). The description is as above. The source holds these as a separate data set.

Like-named read-outs stand apart in the source and are kept apart here.

L1-CAM-Fc, sequence (P32004 20-1120 limits assumed): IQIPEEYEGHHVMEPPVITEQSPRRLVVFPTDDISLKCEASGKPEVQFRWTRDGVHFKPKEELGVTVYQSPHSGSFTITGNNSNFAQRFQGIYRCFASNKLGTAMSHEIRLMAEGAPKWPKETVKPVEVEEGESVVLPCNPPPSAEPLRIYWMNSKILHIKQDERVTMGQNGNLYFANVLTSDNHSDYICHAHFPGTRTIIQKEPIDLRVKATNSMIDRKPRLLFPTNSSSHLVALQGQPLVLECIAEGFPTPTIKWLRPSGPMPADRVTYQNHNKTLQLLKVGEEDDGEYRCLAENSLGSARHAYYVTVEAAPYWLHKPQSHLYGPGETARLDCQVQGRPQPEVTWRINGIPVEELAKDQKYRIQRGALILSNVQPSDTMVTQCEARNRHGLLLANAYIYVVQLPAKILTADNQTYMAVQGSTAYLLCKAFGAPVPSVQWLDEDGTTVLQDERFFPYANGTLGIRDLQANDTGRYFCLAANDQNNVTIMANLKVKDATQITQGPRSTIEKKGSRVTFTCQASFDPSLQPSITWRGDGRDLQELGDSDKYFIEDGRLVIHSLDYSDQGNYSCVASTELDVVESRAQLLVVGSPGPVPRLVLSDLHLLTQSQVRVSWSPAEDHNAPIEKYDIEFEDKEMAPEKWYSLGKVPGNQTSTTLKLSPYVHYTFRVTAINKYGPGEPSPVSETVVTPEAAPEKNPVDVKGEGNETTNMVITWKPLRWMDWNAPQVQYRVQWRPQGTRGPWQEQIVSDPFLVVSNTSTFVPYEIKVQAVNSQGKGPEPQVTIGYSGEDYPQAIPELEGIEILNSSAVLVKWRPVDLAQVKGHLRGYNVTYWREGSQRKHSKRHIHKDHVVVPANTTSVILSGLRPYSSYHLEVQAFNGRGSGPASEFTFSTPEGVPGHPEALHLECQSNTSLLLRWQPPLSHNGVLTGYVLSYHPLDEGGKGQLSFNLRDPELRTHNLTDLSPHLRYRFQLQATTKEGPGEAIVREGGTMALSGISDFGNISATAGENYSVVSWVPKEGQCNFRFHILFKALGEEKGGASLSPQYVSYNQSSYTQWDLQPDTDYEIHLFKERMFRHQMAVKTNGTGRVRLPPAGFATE
L1-CAM-His, sequence (P32004 20-1120): as the sequence (P32004 20-1120 limits assumed) above

B1: chCE7 (antibody, from another filing, V domains shown)
VH: QVQLQQPGAELVKPGASVKLSCKASGYTFTGYWMHWVKQRPGHGLEWIGEINPSNGRTNYNERFKSKATLTVDKSSTTAFMQLSGLTSEDSAVYFCARDYYGTSYNFDYWGQGTTLTVSS
VL: DIQMTQSSSSFSVSLGDRVTITCKANEDINNRLAWYQQTPGNSPRLLISGATNLVTGVPSRFSGSGSGKDYTLTITSLQAEDFATYYCQQYWSTPFTFGSGTELEIK
One may read the Kd as the concentration at which binding is half-saturated. In the case of B1, the Kd with L1-CAM-His amounted to 1.3 nM; with L1-CAM-Fc [1] it was 0.618 nM; with L1-CAM-Fc [2], 1.42 nM.
